The text below walks through data of US11951128B2, “Compositions and methods for the isolation and/or generation of specific CD4+ and CD8+ T-cell subsets” (LA JOLLA INSTITUTE FOR ALLERGY AND IMMUNOLOGY, priority 2017, dated 2024).

The subject of one test is B16 tumor cells. Kind of test: MHC class II expression on B16 tumor cells. The class given is cell-based, mouse. The text has this:
As a result, most transferred CD4 CTL died in vivo. In addition, activated anti-tumor specific CD8 CTL kill the tumor cells in response to detecting their Ag on the tumor cells presented by MHC class I (OVA Ag on the B16-OVA). In addition they also secrete IFNg which in turn upregulate MHC class II expression on the tumor cells (right panel). Anti-tumor reactive CD8 T-cells become restrained (induction of PD-1) or undergo TL- or activation-induced cell death. Therefore, a combination of anti-tumor CD8 T-cells (or NK T-cells or DN T-cells) and anti-tumor CD4 CTL which can kill tumor cells once MHC class II is induced, can be a powerful anti-tumor immunotherapy.

A further test concerns CD8ab T-cells. Kind of test: induction of CD8αα on in vitro activated CD8ab T-cells, measured with TL tetramer. The class given is cell-based, mice. The settings on record: for generation of CD8αα effector memory precursor cells: WT, IL10−/− or IL21−/− CD8ab T-cells, anti-CD3/CD28, with or without IL12. Here is the method:
CD8ab T-cells isolated from wild type mice (WT) or IL10 deficient mice (IL10−/−), or IL21 deficient mice (IL21−/−) were activated in vitro with anti-CD3/CD28 and with or without IL12. Induction of CD8αα was measured using TL tetramer.

Regarding “IFNg: soluble cytokine, the only member of the type II class of interferons”, the “MHC class II (I-A^b) expression on tumor cells” value in the test on B16 tumor cells is recorded as “induce MHC class II (I-A^b)”.

Consider IL-21: anti-inflammatory cytokine, for which, in the test on CD8ab T-cells, the “generation of CD8αβ TEM/RM” value is on record as “counteract” and the “generation of CD8αα effector memory precursor cells” value is “inhibit”.

B1: IL-10: anti-inflammatory cytokine (protein, UniProt P22301 19-178, looked up)
Interleukin-10: SPGQGTQSENSCTHFPGNLPNMLRDLRDAFSRVKTFFQMKDQLDNLLLKESLLEDFKGYLGCQALSEMIQFYLEEVMPQAENQDPDIKAHVNSLGENLKTLRLRLRRCHRFLPCENKSKAVEQVKNAFNKLQEKGIYKAMSEFDIFINYIEAYMTMKIRN
As to B1, in the test on CD8ab T-cells, the “generation of CD8αβ TEM/RM” value is recorded as “counteract” and the “generation of CD8αα effector memory precursor cells” value is listed as “inhibit”.

B2: IL-12: pro-inflammatory cytokine (protein, UniProt P29459 23-219; P29460 23-328, looked up)
Interleukin-12 subunit alpha: RNLPVATPDPGMFPCLHHSQNLLRAVSNMLQKARQTLEFYPCTSEEIDHEDITKDKTSTVEACLPLELTKNESCLNSRETSFITNGSCLASRKTSFMMALCLSSIYEDLKMYQVEFKTMNAKLLMDPKRQIFLDQNMLAVIDELMQALNFNSETVPQKSSLEEPDFYKTKIKLCILLHAFRIRAVTIDRVMSYLNAS
Interleukin-12 subunit beta: IWELKKDVYVVELDWYPDAPGEMVVLTCDTPEEDGITWTLDQSSEVLGSGKTLTIQVKEFGDAGQYTCHKGGEVLSHSLLLLHKKEDGIWSTDILKDQKEPKNKTFLRCEAKNYSGRFTCWWLTTISTDLTFSVKSSRGSSDPQGVTCGAATLSAERVRGDNKEYEYSVECQEDSACPAAEESLPIEVMVDAVHKLKYENYTSSFFIRDIIKPDPPKNLQLKPLKNSRQVEVSWEYPDTWSTPHSYFSLTFCVQVQGKSKREKKDRVFTDKTSATVICRKNASISVRAQDRYYSSSWSEWASVPCS
With B2, in the test with CD8ab T-cells, the “generation of CD8αβ TEM/RM” value is “promotes” and the “generation of CD8αα effector memory precursor cells” value was “promotes”.
